We go through one molecule from patent US20170268001A1, “RNAS WITH TUMOR RADIO/CHEMO-SENSITIZING AND IMMUNOMODULATORY PROPERTIES AND METHODS OF THEIR PREPARATION AND APPLICATION” (THE UNIVERSITY OF CHICAGO, priority 2016, published 2017).

The target of one data set is T1, RIG-I (Homo sapiens, UniProt O95786).
T1 construct: HEK293 cells overexpressing either the full length RIG-I; host or cells: HEK293; HCT116 also for the qRT-PCR validation
T1 sequence (O95786 1-925): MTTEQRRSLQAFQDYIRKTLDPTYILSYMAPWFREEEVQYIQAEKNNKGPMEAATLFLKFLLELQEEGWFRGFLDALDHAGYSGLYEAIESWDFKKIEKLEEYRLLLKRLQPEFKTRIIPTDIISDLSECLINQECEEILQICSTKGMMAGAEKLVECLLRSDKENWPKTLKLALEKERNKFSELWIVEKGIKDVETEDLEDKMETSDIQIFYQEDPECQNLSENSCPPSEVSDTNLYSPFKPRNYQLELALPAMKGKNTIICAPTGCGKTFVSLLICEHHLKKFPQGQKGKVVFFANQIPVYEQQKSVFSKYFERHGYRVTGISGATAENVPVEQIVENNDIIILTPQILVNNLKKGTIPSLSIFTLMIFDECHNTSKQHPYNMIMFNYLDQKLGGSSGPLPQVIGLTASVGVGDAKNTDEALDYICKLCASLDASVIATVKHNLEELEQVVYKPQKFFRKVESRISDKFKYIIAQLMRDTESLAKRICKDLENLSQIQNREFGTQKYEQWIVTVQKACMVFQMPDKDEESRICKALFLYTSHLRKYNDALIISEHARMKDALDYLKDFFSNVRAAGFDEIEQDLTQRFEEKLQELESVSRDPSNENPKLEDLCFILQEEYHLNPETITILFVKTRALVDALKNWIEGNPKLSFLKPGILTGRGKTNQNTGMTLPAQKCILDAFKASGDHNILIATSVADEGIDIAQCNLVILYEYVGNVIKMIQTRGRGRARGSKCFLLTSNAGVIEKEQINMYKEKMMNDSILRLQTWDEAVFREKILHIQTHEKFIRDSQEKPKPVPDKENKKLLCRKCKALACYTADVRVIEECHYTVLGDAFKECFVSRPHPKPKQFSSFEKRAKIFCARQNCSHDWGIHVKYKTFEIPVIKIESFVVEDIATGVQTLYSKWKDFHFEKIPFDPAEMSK
Briefly: HEK293 IFN-beta promoter dual luciferase reporter, RNA stimulation. It is filed as cell-based. As to conditions: in vitro transcribed RNA, RIG-I overexpressing HEK293 cells; also activates endogenous RIG-I. Here is the method: We also used reporter HEK293 cells as simple technique to evaluate ability of the given RNA to stimulate IFN-beta production in preliminary in vitro experiments. Technically this was performed as follows: RNA stimulation of HEK293 IFN-beta reporter cells HEK293 cells were seeded in a 24-well plate overnight at a density of 1.5×10^5 cells/ml (75,000 cells/well). Cells were co-transfected with 100 ng of plasmid construct (pCAGGS empty vector, pCAGGS-RIG-I full-length, pCAGGS-RIG-I helicase-RD mutant construct, and […] mutant construct), together with 80 ng of a firefly luciferase reporter gene driven by an IFN-beta promoter and 20 ng of a Renilla luciferase (pRL-null) transfection control. Transfections were performed using a cationic lipid agent, Fugene HD (Promega), at a 3:1 lipid:DNA ratio. Twenty-four hours post-transfection, cells were then stimulated with 1 μg RNA* mixed with Fugene HD at 2:1 lipid: RNA ratio for 24 hours. 20 μl cell lysates were collected in opaque 96-well plates and analyzed for IFN-beta-luciferase and Renilla activity using a BioTek Synergy HT plate reader. The transfection efficiency across different wells was normalized by dividing the IFN-beta luciferase activity with the Renilla activity. All values were further normalized to the unstimulated controls in cells transfected with the empty vector. All pCAGGS RIG-I constructs used in this study were generous gifts from Dr. Jenish Patel and Dr. Adolfo Garcia-Sastre of The Icahn School of Medicine at Mount Sinai in New York City. Synthetic RNA comprised of various stem loop regions of the human U1 snRNA were purchased from IDT Oligos as reported in (Bernard et al., 2012). U1 stem loop I sequence: [NT] ID NO:15); U1 stem loop II sequence: [NT] ID NO:16); U1 stem loop III sequence: [NT] ID NO:17); U1 stem loop IV sequence: [NT] ID NO:18); U1 stem loops I and II sequence: [NT] ID NO:19); U1 stem loops II and III sequence: [NT] ID NO:20). In vitro transcribed U1 RNA stimulation: Full length U1 (pT7U1) plasmid was generously provided by Dr. Joan Steitz (Yale School of Medicine, Yale University). […]

In a further data set the test system is MC38 tumors. As to the kind of experiment: MC38 tumor growth after IR (20Gy) plus intratumoral RNA with jetPEI. The format is in vivo, mouse. As to conditions: in combination with jetPEI lipid and IR (20Gy); injected 1, 7 and 14 days post-IR. The procedure:
To further test ability of delivered RNAs to affect tumor growth we irradiated MC38 tumors at 20Gy and injected irradiated tumors with stem-loop regions of U1 or U2 at 1, 7 and 14 dayspost-IR. Tumors were grown for 17 days post IR and each 3rd day were measured as described in. As is shown in FIG. 40, injection of stem-loop structures of U1 in combination with jetPEI lipid and IR led to the 2-fold suppression of tumor growth as compared with IR only.
To further test ability of delivered synthetic RNAs (M5 and M8) to affect tumor growth we irradiated MC38 tumors at 20Gy and injected irradiated tumors 1, 7 and 14 dayspost-IR. Tumors were grown for 17 days post IR and each 3rd day were measured as described in. Injection of synthetic RNAs, M5 and M8, in combination with jetPEI lipid and IR led to the 2-fold suppression of tumor growth as compared with IR only.

B1: M5: rbRNA, RIG-I agonist, 81 nucleotides, SEQ ID NO:26 (nucleic acid)
chain: GACGAAGACCACAAAACCAGATAAAAAATTATTTTTTATCTGGTTTTGTGGTCTTCGTCTATAGTGAGTCGTATTAATTTC
modifications: listed as DNA, chemistry not given here
For the molecule B1, the “IFN-beta stimulatory activity (IFN-beta luciferase reporter)” value in the data set with RIG-I was “potent IFN-beta stimulatory activity”. Also, in the data set on MC38 tumors, the “suppression of tumor growth as compared with IR only” value is reported as 2 fold.
